Reference: patent US20260035426

Target: SB1902-C2
Sequence (chain, as listed by the source, chain 1 of 2): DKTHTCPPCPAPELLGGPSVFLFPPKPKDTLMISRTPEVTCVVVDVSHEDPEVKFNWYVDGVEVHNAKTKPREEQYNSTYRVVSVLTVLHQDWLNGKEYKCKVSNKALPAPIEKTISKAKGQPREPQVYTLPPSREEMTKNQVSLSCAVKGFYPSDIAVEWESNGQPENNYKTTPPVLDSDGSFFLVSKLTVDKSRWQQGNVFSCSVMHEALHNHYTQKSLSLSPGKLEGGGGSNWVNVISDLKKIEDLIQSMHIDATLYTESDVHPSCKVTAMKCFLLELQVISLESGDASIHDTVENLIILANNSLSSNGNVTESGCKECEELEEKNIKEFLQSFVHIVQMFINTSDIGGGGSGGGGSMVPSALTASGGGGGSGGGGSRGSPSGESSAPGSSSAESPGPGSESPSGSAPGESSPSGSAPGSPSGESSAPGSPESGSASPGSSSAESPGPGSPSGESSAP
Sequence (chain, as listed by the source, chain 2 of 2): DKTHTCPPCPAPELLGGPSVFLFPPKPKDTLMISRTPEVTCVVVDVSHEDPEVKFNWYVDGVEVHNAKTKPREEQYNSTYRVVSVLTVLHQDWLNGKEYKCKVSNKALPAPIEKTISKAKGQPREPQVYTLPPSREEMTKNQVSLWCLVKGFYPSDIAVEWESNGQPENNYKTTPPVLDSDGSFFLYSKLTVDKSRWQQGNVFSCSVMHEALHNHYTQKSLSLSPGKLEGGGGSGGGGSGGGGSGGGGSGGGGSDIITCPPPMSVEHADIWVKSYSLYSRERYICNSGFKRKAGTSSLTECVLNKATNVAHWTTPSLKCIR

B1: recombinant human MMP2 (protein)
chain: YNFFPRKPKWDKNQITYRIIGYTPDLDPETVDDAFARAFQVWSDVTPLRFSRIHDGEADIMINFGRWEHGDGYPFDGKDGLLAHAFAPGTGVGGDSHFDDDELWTLGEGQVVRVKYGNADGEYCKFPFLFNGKEYNSCTDTGRSDGFLWCSTTYNFEKDGKYGFCPHEALFTMGGNAEGQPCKFPFRFQGTSYDSCTTEGRTDGYRWCGTTEDYDRDKKYGFCPETAMSTVGGNSEGAPCVFPFTFLGNKYESCTSAGRSDGKMWCATTANYDDDRKWGFCPDQGYSLFLVAAHEFGHAMGLEHSQDPGALMAPIYTYTKNFRLSQDDIKGIQELYGASPDIDLGTGPTPTLGPVTPEICKQDIVFDGIAQIRGEIFFFKDRFIWRTVTPRDKPMGPLLVATFWPELPEKIDAVYEAPQEEKAVFFAGNEYWIYSASTLERGYPKPLTSLGLPPDVQRVDAAFNWSKNKKTYIFAGDKFWRYNEVKKKMDPGFPKLIADAWNAIPDNLDAVVDLQGGGHSYFFKGAYYLKLENQSLKSVKFGSIKSDWLGC
digestion efficiency by SDS-PAGE: about 90% of the prodrug SB1902-C2 was digested
